From PMC4859069 (2016) come the findings set out here.

The experiment addresses T1, GST-14-3-3ζ (Drosophila melanogaster (Fruit fly), UniProt P29310).
T1 chain: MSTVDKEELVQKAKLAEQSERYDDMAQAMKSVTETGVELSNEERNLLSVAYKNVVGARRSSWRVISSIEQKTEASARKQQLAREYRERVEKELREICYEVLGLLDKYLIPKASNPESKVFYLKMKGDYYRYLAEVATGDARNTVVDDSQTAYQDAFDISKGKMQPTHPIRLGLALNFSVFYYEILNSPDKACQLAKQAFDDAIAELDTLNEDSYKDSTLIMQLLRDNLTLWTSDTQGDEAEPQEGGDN
The experiment is described as follows: GST pull-down.

B1: MBP-Tctp (protein)
chain: MKIYKDIITGDEMFADTYKMKLVDDVIYEVYGKLITRQGDDIKLEGANASAEEADEGTDITSESGVDVVLNHRLTECFAFGDKKSYTLYLKDYMKKVLAKLEEKSPDQVDIFKTNMNKAMKDILGRFKELQFFTGESMDCDGMVALVEYREINGDSVPVLMFFKHGLEEEKC
For B1, the binding result is reported as “binds”.
